Assay [1] has as its target T1, myostatin (UniProt O14793 267-375).
T1 sequence (looked up): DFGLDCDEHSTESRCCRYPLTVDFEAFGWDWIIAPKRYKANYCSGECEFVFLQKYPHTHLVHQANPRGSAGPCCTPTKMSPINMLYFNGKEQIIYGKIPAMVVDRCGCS
Kind of assay: Biacore SPR (Table 3). The source says:
(§1) Specifically, commercially available follistatins (FS315, manufactured by R&D Systems and follistatin-Fc human chimera FS315-hFc, manufactured by Sino Biological), and FS315-GAG3-mFc fusion proteins were used to assess binding affinity and kinetics to activin, myostatin, and BMPs using Biacore assays. Briefly, FS315 was immobilized onto a CM5 chip, and follistatin-Fc fusion proteins were captured using human or mouse antibody capture kits (GE Healthcare). Post amine-coupling, a concentration series of activin, myostatin, or BMPs (e.g., BMP-2, -4, -6, -7, -9, -10, and GDF-1) was added as soluble analyte at 25° C. sActRTIB-hFc was used as a control. Binding affinities (Kd) and kinetics were determined using standard methods.
In general terms: Surface plasmon resonance follows binding to a sensor surface in real time, without labels.

For assay [2], the target named is T1, myostatin. The assay is described as follows: cell-based or functional assay.
For assay [3], the target named is T2, activin (UniProt P08476 311-426).
T2 sequence (looked up): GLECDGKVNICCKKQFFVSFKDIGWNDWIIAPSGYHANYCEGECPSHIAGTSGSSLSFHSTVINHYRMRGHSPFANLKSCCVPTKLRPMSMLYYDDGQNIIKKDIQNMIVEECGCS
Kind of assay: cell-based or functional assay.

Assay [4] has as its target T1, myostatin. The assay is described as follows: cell-based or functional assay. The source holds these as a separate data set.
A further assay has as its target T3, BMP-10 (UniProt O95393 317-424).
T3 sequence (looked up): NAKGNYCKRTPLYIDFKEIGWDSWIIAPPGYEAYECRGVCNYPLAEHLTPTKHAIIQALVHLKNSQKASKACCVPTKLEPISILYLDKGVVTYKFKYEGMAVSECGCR
Kind of assay: Biacore SPR, 25 C; Fc fusion captured with antibody capture kit, ligand as soluble analyte.
Description: as §1

The target in another assay is BMP-2 (UniProt P12643 283-396). The assay is described as above.
Description: as §1

The next assay concerns the target T4, BMP-9 (UniProt Q9UK05 320-429).
T4 sequence (looked up): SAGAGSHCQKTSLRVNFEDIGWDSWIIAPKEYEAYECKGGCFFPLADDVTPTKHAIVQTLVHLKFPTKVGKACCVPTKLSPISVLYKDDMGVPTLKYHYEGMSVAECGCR
Described as above.
Description: as §1

Assay [5] deals with T1, myostatin. The assay is described as follows: Biacore SPR, 25 C; Fc fusion captured with mouse antibody capture kit, ligand as soluble analyte.
Description: as §1

The target of assay [6] is T2, activin. The description is as above.
Description: as §1

Another assay concerns the target T5, GDF-11 (UniProt O95390 299-407).
T5 sequence (looked up): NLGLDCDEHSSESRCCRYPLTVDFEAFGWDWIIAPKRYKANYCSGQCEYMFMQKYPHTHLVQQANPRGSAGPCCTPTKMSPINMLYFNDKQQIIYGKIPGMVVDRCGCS
Described as above.
Description: as §1

In a further assay the target is T6, BMP-4 (UniProt P12644 293-408).
T6 sequence (looked up): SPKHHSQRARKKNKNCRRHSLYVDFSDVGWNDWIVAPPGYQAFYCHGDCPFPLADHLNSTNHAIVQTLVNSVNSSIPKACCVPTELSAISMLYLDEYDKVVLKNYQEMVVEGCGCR
The assay is described as above.
Description: as §1

Broadly, the Kd is a measure of binding affinity in units of concentration. The low end stands for tighter binding, the high end for weaker binding.

BMP-2, sequence (P12643 283-396 limits assumed): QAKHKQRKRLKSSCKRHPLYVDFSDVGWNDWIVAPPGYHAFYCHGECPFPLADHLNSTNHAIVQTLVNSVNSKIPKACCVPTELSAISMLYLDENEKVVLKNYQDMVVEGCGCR

B1: FS315-GAG3-mFc (Fc fusion)
chain: GNCWLRQAKNGRCQVLYKTELSKEECCSTGRLSTSWTEEDVNDNTLFKWMIFNGGAPNCIPCKETCENVDCGPGKKCRMNKKNKPRCVCAPDCSNITWKGPVCGLDGKTYRNECALLKARCKEQPELEVQYQGRCKKTCRDVFCPGSSTCVVDQTNNAYCVTCNRICPEPASSEQYLCGNDGVTYSSACHLRKATCLLGRSIGLAYEGKCIKAKSCEDIQCTGGKKCLWDFKVGRGRCSLCDELCPDSKSDEPVCASDNATYASECAMKEAACSSGVLLEVKHSGSCNSISEDTEEEEEDEDQDYSFPISSILEWGAPGGGGGAAAAAGGGGGGAPGGGGGAAAAAGGGGGGAPGGGGGAAAAAGGGGGGAPGCKPCICTVPEVSSVFIFPPKPKDVLTITLTPKVTCVVVDISKDDPEVQFSWFVDDVEVHTAQTQPREEQFNSTFRSVSELPIMHQDWLNGKEFKCRVNSAAFPAPIEKTISKTKGRPKAPQVYTIPPPKEQMAKDKVSLTCMITDFFPEDITVEWQWNGQPAENYKNTQPIMDTDGSYFVYSKLNVQKSNWEAGNTFTCSVLHEGLHNHHTEKSLSHSPGK
notes: also called FS315-mFc; FS315-Fc
With B1, the “fold increase of binding affinity against follistatin (FS315)” value with myostatin [1] was at least 10 fold. For the same molecule, the “IC50, CAGA-luciferase reporter assay for Smad2/3 signaling (1.2 nM myostatin)” value in the assay with myostatin [2] was found to be 460 pM. Besides, in the assay with activin [3], the “IC50, CAGA-luciferase reporter assay for Smad2/3 signaling (1.2 nM activin)” value came out at 360 pM. Besides, the “IC50 (read off the curve); CAGA-luciferase reporter in HEK293 cells, myostatin (1.2 nM)-induced Smad2/3 signalling” value with myostatin [4] is about 300 pM. The binding result with BMP-10, with BMP-2 and with BMP-9 was “no binding” in each case. Besides, the equilibrium dissociation constant (Kd) in the assay with myostatin [5] was found to be 0.073 pM; with activin [6], 0.038 pM; with GDF-11, 0.018 pM; in the assay with BMP-4, 81000 pM.
